Target: T1, FLAG-tagged fragment of CC-afadin (coiled-coil region of afadin, aa 1386-1595) (mouse)
T1 chain: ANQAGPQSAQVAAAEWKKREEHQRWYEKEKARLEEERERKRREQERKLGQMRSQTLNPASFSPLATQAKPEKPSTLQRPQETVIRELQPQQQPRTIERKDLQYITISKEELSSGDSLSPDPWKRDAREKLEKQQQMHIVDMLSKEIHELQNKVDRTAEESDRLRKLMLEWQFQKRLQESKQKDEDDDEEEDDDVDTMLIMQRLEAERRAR
Assay: sucrose density gradient centrifugation

B1: αE-catenin fragment MIII-C (aa 509-906) (domain or fragment)
chain: DDFLAVSENHILEDVNKCVIALQEKDVDGLDRTAGAIRGRAARVIHVVTSEMDNYEPGVYTEKVLEATKLLSNTVMPRFTEQVEAAVEALSSDPAQPMDENEFIDASRLVYDGIRDIRKAVLMIRTPEELDDSDFETEDFDVRSRTSVQTEDDQLIAGQSARAIMAQLPQEQKAKIAEQVASFQEEKSKLDAEVSKWDDSGNDIIVLAKQMCMIMMEMTDFTRGKGPLKNTSDVISAAKKIAEAGSRMDKLGRTIADHCPDSACKQDLLAYLQRIALYCHQLNICSKVKAEVQNLGGELVVSGVDSAMSLIQAAKNLMNAVVQTVKASYVASTKYQKSQGMASLNLPAVSWKMKAPEKKPLVKREKQDETQTKIKRASQKKHVNPVQALSEFKAMDSI
- stoichiometry N: 1

From article PMC7199863 (The Journal of Cell Biology, 2020)
